The results in this text go back to ChEMBL document CHEMBL1122090, “Species- or isozyme-specific enzyme inhibitors. 7. Selective effects in inhibitions of rat adenylate kinase isozymes by adenosine 5'-phosphate derivatives” (J Med Chem, 1982).

Substrate in data set [1]: CCNc1nc(N)c2ncn([C@@H]3O[C@H](COP(=O)(O)O)[C@@H](O)[C@H]3O)c2n1
Put plainly: (§1) Concentration of compound for half-maximal velocity to Adenylate kinase M isoenzyme.

Substrate in data set [2]: CN(C)c1nc(N)c2ncn(C3O[C@H](COP(=O)(O)O)[C@@H](O)[C@H]3O)c2n1
The description is as §1.

Substrate in data set [3]: CNc1nc(N)c2ncn([C@@H]3O[C@H](COP(=O)(O)O)[C@@H](O)[C@H]3O)c2n1
Described as §1.

Substrate in data set [4]: C[C@@H]1[C@H](O)[C@@H](COP(=O)(O)O)O[C@H]1n1cnc2c(N)ncnc21
The description is as §1.

Substrate in data set [5]: C[C@H](OP(=O)(O)O)[C@H]1OC(n2cnc3c(N)ncnc32)[C@H](O)[C@@H]1O
Described as §1.

Substrate in data set [6]: Nc1nc(Cl)nc2c1ncn2[C@@H]1O[C@H](COP(=O)(O)O)[C@@H](O)[C@H]1O
Described as §1.

Substrate in data set [7]: Nc1nc(N)c2ncn([C@@H]3O[C@H](COP(=O)(O)O)[C@@H](O)[C@H]3O)c2n1
Described as §1.

Substrate in data set [8]: Nc1ncnc2c1ncn2[C@@H]1O[C@H](/C=C/P(=O)(O)O)[C@@H](O)[C@H]1O
The data set is described as §1.

Substrate in data set [9]: Nc1ncnc2c1ncn2[C@@H]1O[C@H](CCP(=O)(O)O)[C@@H](O)[C@H]1O
The description is as §1.

Substrate in data set [10]: Nc1ncnc2c1ncn2[C@@H]1O[C@H](COP(=O)(O)O)[C@@H](O)[C@H]1O
The data set is described as §1.

Substrate in data set [11]: CCC[C@H](OP(=O)(O)O)[C@H]1OC(n2cnc3c(N)ncnc32)[C@H](O)[C@@H]1O
Put plainly: (§2) Concentration for half-maximal velocity to Adenylate kinase III.

Substrate in data set [12]: CCNc1nc(N)c2ncn([C@@H]3O[C@H](COP(=O)(O)O)[C@@H](O)[C@H]3O)c2n1
Described as §2.

Substrate in data set [13]: CNc1nc(N)c2ncn([C@@H]3O[C@H](COP(=O)(O)O)[C@@H](O)[C@H]3O)c2n1
The data set is described as §2.

Substrate in data set [14]: C[C@@H]1[C@H](O)[C@@H](COP(=O)(O)O)O[C@H]1n1cnc2c(N)ncnc21
Described as §2.

Substrate in data set [15]: C[C@H](OP(=O)(O)O)[C@H]1OC(n2cnc3c(N)ncnc32)[C@H](O)[C@@H]1O
The description is as §2.

Substrate in data set [16]: Nc1nc(Cl)nc2c1ncn2[C@@H]1O[C@H](COP(=O)(O)O)[C@@H](O)[C@H]1O
The data set is described as §2.

Substrate in data set [17]: Nc1nc(N)c2ncn([C@@H]3O[C@H](COP(=O)(O)O)[C@@H](O)[C@H]3O)c2n1
The data set is described as §2.

Substrate in data set [18]: Nc1ncnc2c1ncn2[C@@H]1O[C@H](/C=C/P(=O)(O)O)[C@@H](O)[C@H]1O
The description is as §2.

Substrate in data set [19]: Nc1ncnc2c1ncn2[C@@H]1O[C@H](CCP(=O)(O)O)[C@@H](O)[C@H]1O
The data set is described as §2.

Substrate in data set [20]: Nc1ncnc2c1ncn2[C@@H]1O[C@H](COP(=O)(O)O)[C@@H](O)[C@H]1O
The data set is described as §2.

B1: Adenylate kinase isoenzyme 1 (Rattus norvegicus), P39069 (protein)
chain: MEDKLKKAKIIFVVGGPGSGKGTQCEKIVQKYGYTHLSTGDLLRAEVSSGSSRGKMLSSIMEKGELVPLETVLDMLRDAMLAKVDSSNGFLIDGYPREVKQGEEFERKIAQPTLLLYVDAGPETMTQRLLKRGETSGRVDDNEETIKKRLETYYKATEPVISFYDKRGIVRKVNAEGSVDTVFSQVCTYLDSLK
With B1, the Km was found to be 4200 µM in data set [1]; 7500 µM in data set [2]; 2900 µM in data set [3]; 5500 µM in data set [4]; 2000 µM in [5]; 2700 µM in data set [6]. Moreover, the Km came out at 3500 µM in data set [7], 2000 µM in data set [8], 4200 µM in [9] and 580 µM in [10].

B2: GTP:AMP phosphotransferase AK3, mitochondrial (Rattus norvegicus), P29411 (protein)
chain: MGASGRLLRAVIMGAPGSGKGTGSSRITKHFELKHLSSGDLLRQNMLQGTEIAVLAKSFIDQGKLIPDDDMTRLALHELKNLTQCSWLLDGFPRTLPQAEALDRVYQIDTVINLNVPFEVIKLRLTARWIHPASGRVYNIEFNPPKTVGIDDLTGEPLIQREDDKPETVIKRLKAYEAQTEPVLQYYQKKGVLETFSGTETNKIRPHVYSFLQMKVPETIQKASVTP
In the case of B2, the Km in [11] is 830 µM; in data set [12], 5400 µM; in data set [13], 3700 µM; in [14], 790 µM; in [15] it was 1100 µM; in data set [16], 1600 µM. For the same protein, the Km amounted to 1900 µM in data set [17], 1400 µM in data set [18], 2200 µM in data set [19] and 80 µM in data set [20].

A word on the Km: it is the substrate concentration at which the rate is half of its maximum.
